Assay results as given in patent US6448032B1, “Human melanocyte stimulating hormone receptor polypeptide and DNA” (priority 1992, dated 2002).
No end group written: not given here.

How the values were obtained:
MC-2 receptor = biological target: T1, MC-2 receptor (Homo sapiens, UniProt P33032); experiment: Inhibition of 125I-NDP-MSH binding to COS-7 cells transfected with pE-MC-2; details: pE-MC-2 transfected COS-7 cells
T1 construct: expressed in transfected cells; host or cells: COS-7 cells, transient, plasmid pE-MC-2 (pRC/CMV)
T1 sequence (P33032 whole entry): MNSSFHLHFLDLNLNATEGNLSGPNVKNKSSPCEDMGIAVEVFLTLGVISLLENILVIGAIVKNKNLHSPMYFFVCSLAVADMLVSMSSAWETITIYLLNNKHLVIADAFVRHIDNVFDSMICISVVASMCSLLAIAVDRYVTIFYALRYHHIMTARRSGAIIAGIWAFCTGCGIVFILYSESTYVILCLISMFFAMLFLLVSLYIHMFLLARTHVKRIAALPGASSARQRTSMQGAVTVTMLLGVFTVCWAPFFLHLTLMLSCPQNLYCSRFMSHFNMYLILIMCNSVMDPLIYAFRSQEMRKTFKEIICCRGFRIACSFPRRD
Experimental: (§1) Eighty percent confluent cultures were transfected with 1 μg of pE-MC-2 plasmid DNA and 40 μg lipofectin (BRL, 8400 Helgerman Court, Gaithersburg, Md. 20877, USA) in serum free medium. Five hours after transfection, serum containing medium was replaced, and cells were cultivated for 20 hours. Cells were then scraped off, centrifuged, resuspended in serum containing medium, plated on 48 well plates, and allowed to grow for 24 hours. […] Radioactivity was counted and data analyzed by iterative, non-linear curve fitting programme suitable for radioligand binding analysis (see FIG. 9).

MSH receptor [1] = biological target: T2, MSH receptor (Homo sapiens, UniProt Q01726); experiment: Inhibition of 125I-NDP-MSH binding to COS-7 cells transfected with MSH receptor cDNA (pE-11D); details: pE-11D transfected COS-7 cells
T2 construct: This polypeptide constitutes the entire polypeptide of an MSH receptor; expressed in transfected cells; host or cells: COS-7 cells, transient, plasmid pE-11D (pcDNAI)
T2 sequence (Q01726 whole entry): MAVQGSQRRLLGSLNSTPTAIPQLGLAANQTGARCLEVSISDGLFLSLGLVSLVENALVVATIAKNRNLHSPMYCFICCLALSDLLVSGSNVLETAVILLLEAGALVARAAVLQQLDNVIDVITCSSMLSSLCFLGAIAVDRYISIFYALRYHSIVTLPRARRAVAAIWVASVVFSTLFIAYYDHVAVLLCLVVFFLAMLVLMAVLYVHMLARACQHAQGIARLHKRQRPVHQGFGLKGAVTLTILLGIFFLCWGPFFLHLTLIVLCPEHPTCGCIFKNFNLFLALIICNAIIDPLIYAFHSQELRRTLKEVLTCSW
Experimental: as §1, with “pE-11D” for “pE-MC-2”, “6).” for “9).”

MSH receptor [2] = biological target: T2, MSH receptor; experiment: Inhibition of 125I-NDP-MSH binding to stable COS-7 cell line harbouring pRC/CMV-11D; details: NDP-MSH radioligand competition
Experimental: COS-7 cells (available from ATCC) were grown in Dulbecco's modified Eagle medium with 8% fetal calf serum and non-essential amino acids (Gibco/BRL, 8400 Helgerman Court, Gaithersburg, Md. 20877, USA) in serum free medium, five hours after transfection, serum containing medium was replaced, and cells were cultivated for 48 hours. At this time selection for the calls stably harbouring the pRC/CMV-11D plasmid was begun by growing the cells in neomycin (0.5 mg/ml) containing medium (selection medium). Selection procedure was continued for two weeks, replacing the selection medium every 4th day. surviving cells were collected and maintained in the selection medium. These cells constitute the stable cell line.
To investigate the binding properties cells were scraped off from the culture flask, centrifuged, resuspended in selection medium, plated on 48 well, and allowed to grow for 24 hours. […] Radioactivity was counted and data analyzed by an iterative, non-linear curve fitting programme suitable for radioligand binding analysis. […]

[3] = 37° C., 2 hours, Ki from IC-50 by Cheng and Prusoff equation, read-out: Ki for inhibiting 125I-NDP-MSH binding

Compound | affinity for the expressed MC-2 receptor (MC-2 receptor; 125I-NDP-MSH competition) | affinity for the expressed MSH receptor (MSH receptor [1]; 125I-NDP-MSH competition) | binding affinity for the expressed MSH receptor (MSH receptor [2]) | Ki (MC-2 receptor; [3]) | Ki (MSH receptor [1]; [3])
β-endorphin: non-melanotropic POMC peptide | no affinity | no affinity | no affinity |  | 
CSCC[C@H](N)C(=O)N[C@@H](CCC(=O)O)C(=O)N[C@@H](Cc1c[nH]cn1)C(=O)N[C@@H](Cc1ccccc1)C(=O)N[C@@H](CCCNC(=N)N)C(=O)N[C@@H](Cc1c[nH]c2ccccc12)C(=O)NCC(=O)O [ACTH (4-10)] |  |  | very low binding affinity |  | 
SYSMEHFRWGKPVGKKRRPVKVYPNGAEDESAEAFPLEF [ACTH (1-39)] |  |  |  | 929 ± 389 nM | 0.17 ± 0.037 nM
